Assay results taken from patent publication EP3284477A1, “COMPOSITION COMPRISING SELF-ASSEMBLING PEPTIDES FOR USE IN TREATMENT OF GINGIVITIS, PERIODONTITIS AND/OR PERI-IMPLANTITIS” (Credentis AG, priority 2016, dated 2018).

Columns and labels:
[1] = Stability of P11 peptide gels in absence of cells or bacteria (peptide release into supernatant, Qubit Protein Assay); assay type: physicochemical; design: unit not given here; conditions: 7 days, 100µl peptide / well, c= 20 mg/ml, in PBS
Protocol: (§1) The following figures and examples are supposed to illustrate and further explain, but not to limit the invention. Any references cited herein are herewith fully incorporated. • Fig. 1: Bacterial density after release of antibiotics (150 mg/ml) from self-assembling peptide gels (15 mg/ml), and the impact thereof to the growth of P. gingivalis (A-C) and S. sanguinis (D-F). Circles: metronidazol, stars: tetracycline, triangle: ciprofloxacin, squares: doxycycline hyclate; control: gel without API A/D P11-4 gel. B/E P11-13/14 gel. C/F P11-28/29 gel • Fig. 2: Cross section of demineralized tooth after incubation with polymeric P11-4. […] 100µl peptide / well, c= 20 mg/ml, in PBS, quantified with Qubit R Protein Assay Ref: Q33211. […] 100 µl peptide / well, c= 20 mg/ml, in PBS, quantified with Qubit R Protein Assay Ref: Q33211. […] Since NO3- are monovalent ions, and ionic strength of the solution was below 130 mM, P11-8 self-assembling was slowed down. On the other hand self-assembling kinetic of P11-8 with DMEM and NaCl solution is very similar. […] Human Periodontal Ligament cells were placed in a cell pool (A) and the SAP gel (C) placed on the human dentin (B). The cell/SAP-gel/ dentin was then incubated for 8 days and visually assessed resulting in migration of up to 5 mm. Scale bar: 1 mm

bacteria = test: Degradation of P11-4 peptide gel in presence of bacteria (Qubit Protein Assay); assay type: physicochemical; conditions: 100 µl peptide / well, c= 20 mg/ml, in PBS
Protocol: as §1

[2] = Mechanical properties (storage modulus G') of gels in different ion and buffer systems; assay type: physicochemical; conditions: compared with Tris-NaCl
Protocol: as §1

[3] = system: Human Periodontal Ligament cells; test: Cell migration on a periodontal ligament model (cell pool / SAP gel / human dentin); assay type: cell-based; conditions: 15 mg/ml gel on human dentin, 8 days of incubation, visually assessed
Protocol: as §1

S. sanguinis = test: Release of antibiotics from self-assembling peptide gels: impact on bacterial growth (turbidity OD600); assay type: cell-based; conditions: antibiotic 150 mg/ml released from self-assembling peptide gels (15 mg/ml), aerobic, OD600 normalized to gel without antibiotic, over 120 hours
Protocol: (§2) The following figures and examples are supposed to illustrate and further explain, but not to limit the invention. Any references cited herein are herewith fully incorporated. • Fig. 1: Bacterial density after release of antibiotics (150 mg/ml) from self-assembling peptide gels (15 mg/ml), and the impact thereof to the growth of P. gingivalis (A-C) and S. sanguinis (D-F). Circles: metronidazol, stars: tetracycline, triangle: ciprofloxacin, squares: doxycycline hyclate; control: gel without API A/D P11-4 gel. B/E P11-13/14 gel. C/F P11-28/29 gel • Fig. 2: Cross section of demineralized tooth after incubation with polymeric P11-4. […] 100µl peptide / well, c= 20 mg/ml, in PBS, quantified with Qubit R Protein Assay Ref: Q33211. […] 100 µl peptide / well, c= 20 mg/ml, in PBS, quantified with Qubit R Protein Assay Ref: Q33211. […] Since NO3- are monovalent ions, and ionic strength of the solution was below 130 mM, P11-8 self-assembling was slowed down. […] The cell/SAP-gel/ dentin was then incubated for 8 days and visually assessed resulting in migration of up to 5 mm. […]
(§3) Furthermore 100 uL/well of a defined anaerobic P. gingivalis or aerobic S. anguines bacterial culture ([…] e.g. 990 µl BHI medium, 10 µl 10^8 CFU/ml bacteria suspension) were added onto the gels. Impact on growth was assessed by measuring turbidity at OD600 nm. […]

P. gingivalis = test: as above; assay type: cell-based; conditions: antibiotic 150 mg/ml released from self-assembling peptide gels (15 mg/ml), anaerobic, OD600 normalized to gel without antibiotic, over 120 hours
Protocol: as §2, §3

| Molecule | release of peptide into the supernatant [1] | stability (time the peptide is stable) (bacteria) | storage modulus G' ([2]; gel formed in DMEM (pH 7.4, ionic strength 130 mM)) | storage modulus G' ([2]; gel formed in artificial saliva (Tris 120 mM, Ca(NO3) 4 mM, KH2PO4 2.4 mM, pH 7.2), DMEM, Tris MgSO4) | migration [3] | inhibition of bacterial growth (relative bacterial density) (S. sanguinis) | inhibition of bacterial growth (relative bacterial density) (P. gingivalis) |
| --- | --- | --- | --- | --- | --- | --- | --- |
| QQRFEWEFEQQ [P11-4, self-assembling peptide] | less than one | more than 3 days | lower storage modulus | storage moduli between G'(NaCl and MgSO^4) was reached | up to 5 mm | – | – |
| Cc1ncc([N+](=O)[O-])n1CCO [metronidazole] | – | – | – | – | – | low effectivity in most systems at this concentration | low effectivity in most systems at this concentration |
